# Paper PMC12049944
# Legend:
# Assay in all cases: cross-linking; intermolecular disulfides between Cys residues introduced in helices 4 and 6 of APOA1 in rHDL; SDS-PAGE under reducing and oxidising conditions
# [1] = molecular target: APOA1 double Cys mutant K107C/H155C in rHDL (human)
# [2] = molecular target: APOA1 double Cys mutant M112C/M148C in rHDL (human)
# [3] = molecular target: APOA1 double Cys mutant Y100C/M162C in rHDL (human)
# [4] = molecular target: APOA1 double Cys mutant Y115C/E147C in rHDL (human)
substance,measurement,setting,value
APOA1 double Cys mutant K107C/H155C in rHDL,percent of APOA1 remaining monomeric (oxidising conditions),[1],10%
APOA1 double Cys mutant M112C/M148C in rHDL,percent dimer (oxidising conditions),[2],50%
APOA1 double Cys mutant Y100C/M162C in rHDL (natural protein),percent of APOA1 remaining monomeric (oxidising conditions),[3],10%
APOA1 double Cys mutant Y115C/E147C in rHDL,percent of APOA1 remaining monomeric (oxidising conditions),[4],10%
